Measurements from PMC5751283, “A Split-Luciferase Reporter Recognizing GFP and mCherry Tags to Facilitate Studies of Protein–Protein Interactions” (International Journal of Molecular Sciences, 2017).

Target: the molecule itself
Experiment: split reporter (BiFC, NanoBiT); GFP- and/or mCherry-tagged targets expressed in Leishmania tarentolae extract (pairs co-expressed, self-associating proteins alone), serially diluted three-fold, mixed 1:1:1 with two split-nanoLuc fusions of anti-GFP or anti-mCherry nanobodies (SLN pairs GL/GS, LC/GS, CL/CS or LC/CFRS, also made in LTE); 10 min at 23 °C; buffer A (25 mM HEPES pH 7.4, 50 mM NaCl); background: …

B1: mCherry–SOX9 (natural protein, UniProt P48436 1-509, looked up)
chain: MNLLDPFMKMTDEQEKGLSGAPSPTMSEDSAGSPCPSGSGSDTENTRPQENTFPKGEPDLKKESEEDKFPVCIREAVSQVLKGYDWTLVPMPVRVNGSSKNKPHVKRPMNAFMVWAQAARRKLADQYPHLHNAELSKTLGKLWRLLNESEKRPFVEEAERLRVQHKKDHPDYKYQPRRRKSVKNGQAEAEEATEQTHISPNAIFKALQADSPHSSSGMSEVHSPGEHSGQSQGPPTPPTTPKTDVQPGKADLKREGRPLPEGGRQPPIDFRDVDIGELSSDVISNIETFDVNEFDQYLPPNGHPGVPATHGQVTYTGSYGISSTAATPASAGHVWMSKQQAPPPPPQQPPQAPPAPQAPPQPQAAPPQQPAAPPQQPQAHTLTTLSSEPGQSQRTHIKTEQLSPSHYSEQQQHSPQQIAYSPFNLPHYSPSYPPITRSQYDYTDHQNSSSYYSHAAGQGTGLYSTFTYMNPAQRPMYTPIADTSGVPSIPQTHSPQHWEQPVYTQLTRP
notes: SOX9; also called SOX9–mCherry; mCherry homodimer; source: Leishmania tarentolae cell-free extract (LTE), not purified
  signal-to-background ratio: 5
